Results on two molecules are retold here after US20190083616A1 (UNIVERSITY OF TENESSEE RESEARCH FOUNDATION, published 2019).

The target of one assay is Vκ4Len(1-22) peptide (UniProt P06312). Put plainly: EuLISA, peptide-coated wells, mAb titrated from 100 nM.
For assay [1], the target named is T1, peptope p66 (p5+14 - SVTVVT linker - 11-1F4 12-mer epitope KHYAAFPENLLI).
T1 construct: also called peptide p66; 11-1F4 peptope
T1 peptide: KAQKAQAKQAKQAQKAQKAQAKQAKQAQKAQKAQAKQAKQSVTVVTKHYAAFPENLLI
The experiment in a line: EuLISA: rVλ6Wil fibrils on the plate, p66 added and washed, murine 11-1F4 titrated 1:2 from 100 nM; 11-1F4 also binds the fibrils themselves at high concentration (FIG. 10).

For orientation: EC50 means the midpoint of the concentration-response curve. Low values mean a more potent agent, high ones a less potent agent. For the molecule murine monoclonal antibody 11-1F4, the EC50 in the assay with Vκ4Len(1-22) peptide came to 0.5 nM.

B1: murine monoclonal antibody 11-1F4 (antibody, V domains shown)
VH: QVQLKESGPGLVAPSQSLSITCTVSGFSLSSYGVSWVRQPPGKGLEWLGVIWGDGSTNYHPNLMSRLSISKDISKSQVLFKLNSLQTDDTATYYCVTLDYWGQGTSVTVSS
VL: DVVMTQTPLSLPVSLGDQASISCRSSQSLVHRNGNTYLHWYLQKPGQSPKLLIYKVSNRFSGVPDRFSGSGSGTDFTLKISRVEAEDLGLYFCFQTTYVPNTFGGGTKLEIK
By EC50 (read off the curve) is commonly meant the concentration needed to bring the measured effect to its halfway point. Read a low EC50 (read off the curve) as higher potency in that assay. For the molecule B1, the concentration for a half-maximal effect (EC50 (read off the curve)) in assay [1] is roughly 0.8 nM.
